Assay results from patent publication US12404345B2, “Humanized antibodies against iRHOM2” (SCIRHOM GMBH, priority 2021, dated 2025).

T1: human iRhom1 (Homo sapiens, UniProt Q96CC6)
T1 construct: expressed in transfected cells; host or cells: immortalized iRhom1/2-/- DKO mouse embryonic fibroblasts, pMSCV retroviral infection
T1 sequence (Q96CC6 1-855): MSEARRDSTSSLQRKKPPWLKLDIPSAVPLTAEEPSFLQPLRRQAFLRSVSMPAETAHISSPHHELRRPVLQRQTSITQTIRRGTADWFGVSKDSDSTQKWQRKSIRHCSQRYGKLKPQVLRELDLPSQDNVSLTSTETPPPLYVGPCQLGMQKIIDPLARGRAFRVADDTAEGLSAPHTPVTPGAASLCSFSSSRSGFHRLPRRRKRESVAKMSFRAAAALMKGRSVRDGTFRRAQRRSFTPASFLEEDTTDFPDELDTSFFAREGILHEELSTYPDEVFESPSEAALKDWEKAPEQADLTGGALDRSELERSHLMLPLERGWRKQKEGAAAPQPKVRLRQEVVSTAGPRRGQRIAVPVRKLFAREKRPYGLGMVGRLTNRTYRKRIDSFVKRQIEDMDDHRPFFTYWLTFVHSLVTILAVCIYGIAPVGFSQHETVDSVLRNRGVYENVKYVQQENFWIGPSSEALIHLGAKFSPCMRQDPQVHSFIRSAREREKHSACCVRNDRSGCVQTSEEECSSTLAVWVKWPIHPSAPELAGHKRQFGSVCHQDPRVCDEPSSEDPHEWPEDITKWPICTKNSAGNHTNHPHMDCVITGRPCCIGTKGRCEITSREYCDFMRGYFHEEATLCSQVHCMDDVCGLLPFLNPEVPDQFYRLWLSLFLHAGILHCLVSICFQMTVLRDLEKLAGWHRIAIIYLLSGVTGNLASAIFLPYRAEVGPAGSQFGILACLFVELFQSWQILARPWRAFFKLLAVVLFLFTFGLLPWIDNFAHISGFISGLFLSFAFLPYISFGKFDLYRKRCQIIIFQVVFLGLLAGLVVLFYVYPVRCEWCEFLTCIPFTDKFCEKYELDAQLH


target: T1, human iRhom1; experiment: FACS binding specificity on MEF-DKO-hiR1-FL-WT-T7 cells; conditions: antibody at 3 μg/ml
Experimental: Due to the sequence homology of the human iRhom2 protein versus its closely related family member human iRhom1 (referring to the NCBI reference sequence NP_078875.4. for human iRhom2 and the NCBI reference sequence NP_071895.3 for human iRhom1, the amino acid sequence identity for the extracellular loops 1, 2, 3 and the C-terminal tail of human iRhom2 versus human iRhom1 are calculated as 67.4%, 100.00%, 80.00% and 63.64%, respectively), the binding specificity of the humanized antibodies 16-B-03, 16-B-05, 16-B-07, 23-B-04, 42-B-02, 42-B-04 of the invention for human iRhom2 versus human iRhom1 was assessed as a next step. For this purpose, iRhom1/2−/− DKO MEFs stably expressing a tagged form of human iRhom1 were generated.
In brief, on day 1, Phoenix-ECO cells (American Type Culture Collection, USA) were seeded on 6-well tissue culture plates (Greiner, Germany) in standard growth medium at 8×10^5 cells per well and kept overnight at 37° C., 5% CO2. On day 2, the medium was replaced by fresh medium supplemented with chloroquine (Sigma-Aldrich, USA) at a final concentration of 25 μM. Applying the calcium phosphate method, cells were transfected with 2 μg/ml of pMSCV-hiR1-FL-WT-T7 (SEQ ID NO 50) encoding human iRhom1 full length wild type C-terminally tagged with 3 consecutive copies of the T7 epitope, and were kept at 37° C., 5% CO2. After 7 hours, the transfections were stopped by replacing cell supernatants with standard growth medium lacking chloroquine, and cells were incubated at 37° C., 5% CO2 to allow virus production overnight. In parallel, immortalized iRhom1/2−/− DKO MEFs as target cells for retroviral infection were seeded on 6-well tissue culture plates (Greiner, Germany) in standard growth medium at 1×10^5 cells per well and were also kept overnight at 37° C., 5% CO2. On day 3, the supernatants of Phoenix-ECO cells releasing pMSCV-hiR1-FL-WT-T7 ecotrophic virus were collected, filtered with 0.45 μm CA filters, and supplemented with 4 μg/ml of polybrene (Sigma-Aldrich, USA). Upon removal of medium from the immortalized iRhom1/2−/− DKO MEFs, these supernatants were added to the target cells for 4 hours at 37° C., 5% CO2 for first infection. Simultaneously, Phoenix-ECO cells were re-incubated with fresh medium, which, after another 4 hours, was filtered and used for the second infection of the respective target cell populations, again in the presence of 4 μg/ml of polybrene. Likewise, a third, but overnight infection cycle was performed. On day 4, virus containing cell supernatants were replaced by fresh standard growth medium. From day 5 onwards, cells were grown in the presence of 2 mg/ml of geneticin (G418, Thermo Fisher Scientific, USA) for the selection of immortalized MEF-DKO-hiR1-FL-WT-T7 cells stably expressing human iRhom1 full length wild type C-terminally tagged with 3 consecutive copies of the T7 epitope. Upon propagation, cells were stocked for future usage.
In brief, in addition to immortalized MEF-DKO-EV control cells and MEF-DKO-hiR2-FL-WT-T7 cells (as already described in example 3), MEF-DKO-hiR1-FL-WT-T7 cells were harvested with 10 mM EDTA in PBS, washed and resuspended in FACS buffer (PBS, 3% FBS, 0.05% sodium azide), and seeded in Nunc U-bottom 96-well plates (Thermo Fisher Scientific, USA) at approximately 3×10^5 cells per well. To pellet cells and remove supernatants, the plates were centrifuged at 1,500 rpm and 4° C. for 3 minutes. For primary staining, cells were resuspended in 100 μl per well of either FACS buffer alone (controls), mouse monoclonal anti-T7 IgG (Merck Millipore, USA) at 3 μg/ml FACS buffer or the humanized antibodies 16-B-03, 16-B-05, 16-B-07, 23-B-04, 42-B-02, 42-B-04 of the invention also at 3 μg/ml FACS buffer and incubated on ice for 1 hour. Afterwards, plates were centrifuged at 1,500 rpm and 4° C. for 3 minutes and washed twice with 200 μl per well of FACS buffer. […]

| Molecule | binding to human iRhom1 on MEF-DKO-hiR1-FL-WT-T7 cells |
| --- | --- |
| 16-B-03: humanized antibody binding human iRhom2; HCVD SEQ ID NO 1, LCVD SEQ ID NO 5 (antibody, V domains shown, antibody sequences) VH: QVTLRESGPALVKPTQTLTLTCTFSGFSLSTFALGVGWIRQPPGKALEWLAHIWWDDDKYYNPALKSRLTISKDTSKNQVVLTITNMDPVDTATYYCARITTYYYGMDYWGQGTLVTVSS VL: EIVMTQSPDFQSVTPKEKVTITCRASQSIGNHLHWYQQKPDASPKLLIKYASQSISGVPSRFSGSGSGTDFTLTINSLEAEDAATYFCQQSYQWPLTFGQGTKLEIK | no significant binding |
| 16-B-07: humanized antibody binding human iRhom2; HCVD SEQ ID NO 17, LCVD SEQ ID NO 21 (antibody, V domains shown, antibody sequences) VH: QVTLRESGPALVKPTQTLTLTCTFSGFSLSTFALGVGWIRQPPGKALEWLAHIWWDEDKYYNPALKSRLTISKDTSKNQVVLTITNMDPVDTATYYCARITTYYYGMDYWGQGTLVTVSS VL: EIVMTQSPDFQSVTPKEKVTITCRASQSIGNHLHWYQQKPDASPKLLIKYASQSISGVPSRFSGSGSGTDFTLTINSLEAEDAATYFCQQSYQWPLTFGQGTKLEIK | none of these humanized antibodies of the invention recognizes human iRhom1 |
| 16-B-05: humanized antibody binding human iRhom2; HCVD SEQ ID NO 9, LCVD SEQ ID NO 13 (antibody, V domains shown, antibody sequences) VH: QVTLRESGPALVKPTQTLTLTCTFSGFSLSTFALGVGWIRQPPGKALEWLAHIWWDEDKYYNPALKSRLTISKDTSKNQVVLTITNMDPVDTATYYCARITTYYYGMDYWGQGTLVTVSS VL: EIVMTQSPDFQSVTPKEKVTITCRASQSIGNHLHWYQQKPDASPKLLIKYASQSISGVPSRFSGSGSGTDFTLTINSLEAEDAATYFCQQSYNWPLTFGQGTKLEIK | none of these humanized antibodies of the invention recognizes human iRhom1 |
| 23-B-04: humanized antibody binding human iRhom2; HCVD SEQ ID NO 25, LCVD SEQ ID NO 29 (antibody, V domains shown, antibody sequences) VH: QVTLRESGPALVKPTQTLTLTCTFSGFSLSTFGMGVGWIRQPPGKALEWLAHIWWDDEKYYNSALKSRLTISKDTSKNQVVLTITNMDPVDTATYYCARISNYGSNYWYFNVWGQGTLVTVSS VL: AIQLTQSPSSLSASVGDRVTITCRASSSVSYMYWYQQKPGKAPKVLIYDTSNLASGVPSRFSGSGSGTDYTLTISSLQPEDFATYYCQQWNAYPLTFGQGTKLEIK | none of these humanized antibodies of the invention recognizes human iRhom1 |
| 42-B-02: humanized antibody binding human iRhom2; HCVD SEQ ID NO 33, LCVD SEQ ID NO 37 (antibody, V domains shown, antibody sequences) VH: QVTLRESGPALVKPTQTLTLTCTFSGFSLSTFGRGVGWIRQPPGKALEWLAHIWWDDEKYYNSALKSRLTISKDTSKNQVVLTITNMDPVDTATYYCARIQNYGSNYWYFDVWGQGTLVTVSS VL: AIQLTQSPSSLSASVGDRVTITCRASSRISYMFWYQQKPGKAPKVLIYDTSNLASGVPSRFSGSGSGTDYTLTISSLQPEDFATYYCQQWNSYPLTFGQGTKLEIK | none of these humanized antibodies of the invention recognizes human iRhom1 |
| 42-B-04: humanized antibody binding human iRhom2; HCVD SEQ ID NO 41, LCVD SEQ ID NO 45 (antibody, V domains shown, antibody sequences) VH: QVTLRESGPALVKPTQTLTLTCTFSGFSLSTFGRGVGWIRQPPGKALEWLAHIWWDDEKYYNSALKSRLTISKDTSKNQVVLTITNMDPVDTATYYCARIQNYGSNYWYFDVWGQGTLVTVSS VL: AIQLTQSPSSLSASVGDRVTITCRASSRISYMFWYQQKPGKAPKVLIYDTSNLASGVPSRFSGSGSGTDYTLTISSLQPEDFATYYCQQWNAYPLTFGQGTKLEIK | none of these humanized antibodies of the invention recognizes human iRhom1 |
